Measurements: US20230398116A1, “Agent for reversing resistance to anticancer drugs” (Y'S AC CO., LTD., priority 2020, published 2023)
“Also recorded” adds a separate entry of the source. Each block holds one molecule with its values, some of them ahead of it.

Columns and labels:
E0771 cells = assay: MTT assay / cell proliferation (confluence) assay, E0771; type: cell-based, mouse
Experimental: (§1) Human and mouse breast cancer cells (1×10^4) were cultured in 10% FCS containing RPMI1640 medium on a 96-well flat bottom plate (Corning, Tewksbury, MA) at 37° C. for 24 hours, and then stimulated with IL-26 for 48 hours in the presence or absence of EGFR-TKI (gefitinib or erlotinib) at various concentrations, a signal inhibitor, and a neutralizing antibody. HUVECs were seeded in a 96-well flat bottom plate at 5×10^3 cells/well in a 2% FBS-containing EGM medium in which growth factors were reduced by half, and cultured at 37° C. for 12 hours. Thereafter, the medium was aspirated, and a recombinant human IL-26 dimer was adjusted to a final concentration of 10 ng/mL in a 2% FBS-containing EGM medium containing no growth factors, and added to the cells. The stimulation was started in the presence or absence of control human IgG and anti-human IL-26 antibodies, and the cells were cultured for 48 hours. Thereafter, a concentration of 20 μl or 1/10 of a 5 mg/ml MTT solution (Tetrazolium monosodium salt, WST-8) was added to each well, and the plate was allowed to stand for 1 hour. The absorbance at 450 nm/595 nm was measured using Microplate Reader (Bio-Rad, Hercules, CA) and data was analyzed with Microplate Manager 6 software (Bio-Rad).
(§2) Human and mouse breast cancer cells (1×10^4) were cultured in RPMI1640 medium containing 10% FCS for 24 hours at 37° C. on a 96-well flat bottom plate (Corning), and then stimulated with IL-26 (30 ng/ml) in the presence or absence of various concentrations of gefitinib and a neutralizing antibody. Cell proliferation was measured as cell confluence using IncuCyte ZOOM (Essen Bioscience, Ann Arbor, MI).

HCC70 cells = assay: MTT assay / cell proliferation (confluence) assay, HCC70; type: cell-based, human
Experimental: as §1, §2

T47D cells = assay: MTT assay / cell proliferation (confluence) assay, T47D; type: cell-based, human; settings: 48 hours
Experimental: as §1, with “The stimulation was started in the presence or absence of control human IgG and anti-human IL-26 antibodies, and the cells were cultured for 48 hours. Thereafter, a concentration of 20 μl or 1/10 of a 5 mg/ml MTT solution (Tetrazolium monosodium salt, WST-8) was added to each well, and the plate was allowed to stand for 1 hour.” left out
as §2

[1] = tested on: phosphorylation of AKT, JNK, STAT3 and EphA3 in E0771 cells; assay: Western blotting of phosphorylation in E0771 cells; type: cell-based, mouse
Experimental: To analyze the phosphorylation of AKT, ERK, p38, JNK, STAT3, and EphA3, E0771 cells and HCC70 cells in 100 mm dishes were stimulated with IL-26 ([…]) and an anti-EphA3 polyclonal antibody (pAb) (10 μg/ml) for a specified period of time. After stimulation, the cells were lysed with a 2% protease inhibitor mixture (Sigma-Aldrich) and/or RIPA buffer added with 1×PhosSTOP (Roche Diagnostics, Tokyo, Japan), and a lysate was separated in a reduced state by SDS-PAGE (15 μg/lane). Immunoblots were performed using an anti-phosphorylated AKT antibody, an anti-phosphorylated ERK antibody, an anti-phosphorylated p38 antibody, an anti-phosphorylated JNK antibody, an anti-phosphorylated STAT3 antibody, and an anti-phosphorylated EphA3 antibody that recognize both human and mouse antigens. For reprobing, the membrane was immersed in a stripping buffer. After the stripping procedure, the membranes were re-probed with anti-pan-AKT, anti-pan-ERK, anti-pan-p38, anti-pan-JNK, anti-pan-STAT3, and anti-pan-EphA3 antibodies recognizing both human and mouse antigens. Images were taken using a C-Digit Blot scanner (MS Techno Systems, Inc., Japan).

[2] = tested on: endoplasmic reticulum stress signaling (DDIT3, ATF3, ATF4) in HCC70 cells; assay: qRT-PCR and immunofluorescence of endoplasmic reticulum stress markers in HCC70 cells; type: cell-based, human
Experimental: (§3) E0771 and HCC70 cells (1×10^5) were cultured for 24 hours in RPMI1640 medium with 10% FCS on Lab-Tek chamber slides (Thermo Fisher Scientific). The cultured cells were stimulated with Alexa Fluor 488 labeled IL-26 (30 ng/ml) in the presence or absence of recombinant human and mouse EphA3-Ig for 1 hour. HCC70 cells were stimulated with IL-26 (30 ng/ml) in the presence or absence of gefitinib (40 μM), a signal inhibitor, and a neutralizing antibody for 24 hours. Subcutaneous tumor samples obtained from mice were fixed in 4% paraformaldehyde (Thermo Fisher Scientific) and embedded in OCT compound (Tissue-Tek (registered trademark), Sakura Finetek, Japan). Cells and slides were immunostained with each antibody and observed using a Zeiss inverted microscope and Axiovision 2.0 program (Carl Zeiss, Germany). The fluorescence intensity was quantified with Image-J software (NIH). The images were captured using a 100×400× objective.
(§4) E0771 cells, HCC70 cells, and MDA-MB-468 cells were cultured in RPMI1640 medium containing 10% FCS on a 6-well plate (Corning), and then stimulated with IL-26 (30 ng/ml) in the presence or absence of gefitinib for 3, 6, or 12 hours. The cells were harvested and total RNA was extracted. cDNA was synthesized using PrimeScript II first-strand cDNA synthesis kit (TaKaRa Bio, Japan) and oligo (dT) primers. The mRNA levels were measured by 7500 System SDS software (Applied Biosystems, Foster City, CA) and normalized to hypoxanthine phosphoribosyltransferase expression levels.

[3] = tested on: endoplasmic reticulum stress signaling in MDA-MB-468 cells; assay: qRT-PCR of endoplasmic reticulum stress markers in MDA-MB-468 cells; type: cell-based, human; settings: 6 hours
Experimental: as §4

[4] = tested on: endoplasmic reticulum stress signaling in E0771 cells; assay: qRT-PCR of endoplasmic reticulum stress markers in E0771 cells; type: cell-based, mouse; settings: 6 hours
Experimental: as §4

EphA3/IL-26 interaction = molecular target: T1, EphA3/IL-26 interaction (Homo sapiens, UniProt Q9NPH9); assay: Immunofluorescence of rhIL-26-Alexa 488 and cell surface EphA3 on E0771 cells; type: cell-based, mouse
T1 construct: purchased R&D Systems; host or cells: IL-26 was purchased; EphA3 is endogenous on E0771 cells
T1 sequence (Q9NPH9 22-171): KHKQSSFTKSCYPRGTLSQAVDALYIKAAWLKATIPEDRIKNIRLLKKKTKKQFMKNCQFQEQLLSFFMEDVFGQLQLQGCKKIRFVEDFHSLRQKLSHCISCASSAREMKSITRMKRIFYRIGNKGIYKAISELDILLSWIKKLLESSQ
Experimental: as §3

[5] = molecular target: T2, interaction between IL-26 and EphA3 (Homo sapiens, UniProt Q9NPH9); assay: Immunofluorescence of rhIL-26-Alexa488 and cell surface EphA3 on HCC70 cells; type: cell-based
T2 construct: purchased R&D Systems; host or cells: IL-26 was purchased; EphA3 is endogenous on HCC70 cells
T2 sequence (Q9NPH9 22-171): T1 sequence (Q9NPH9 22-171)
Experimental: as §3

[6] = MDA-MB-468, IL-26 30 ng/ml, gefitinib 20 μM
[7] = E0771, IL-26 30 ng/ml, gefitinib 20 μM

Molecule: COc1cc2ncnc(Nc3ccc(F)c(Cl)c3)c2cc1OCCCN1CCOCC1 [gefitinib, Gefitinib, reference compound]
cell proliferation under gefitinib treatment (E0771 cells; E0771, 48 hours, FIGS. 2A to 2C): suppressed
cell proliferation under gefitinib treatment (HCC70 cells; HCC70, 48 hours, FIGS. 3A to 3C): suppressed
cell proliferation under gefitinib (T47D cells; FIGS. 4C, 4D): suppression of cell proliferation
AKT and JNK phosphorylation under gefitinib ([1]; E0771, gefitinib 20 μM, FIG. 24B): suppression of AKT and JNK phosphorylation
mRNA expression levels of IL-6, IL-8 and CXCL2, gefitinib treatment ([2]; HCC70, gefitinib 40 μM, 6 hours, FIG. 34): significantly increased
expression of DDIT3 at the protein level, gefitinib treatment ([2]; HCC70, gefitinib 40 μM, 24 hours, immunocytochemical staining, FIG. 30): marked increase
mRNA expression levels of DDIT3, ATF3 and ATF4, gefitinib treatment ([2]; HCC70, gefitinib 40 μM, FIG. 28): significantly increased
mRNA expression levels of DDIT3, ATF3 and ATF4, gefitinib treatment ([3]; MDA-MB-468, gefitinib 20 μM, FIG. 29): significantly increased
mRNA expression levels of IL-6, IL-8 and CXCL2, gefitinib treatment ([3]; MDA-MB-468, gefitinib 20 μM, FIG. 34): significantly increased
mRNA expression levels of DDIT3, ATF3 and ATF4, gefitinib treatment ([4]; E0771, gefitinib 20 μM, FIG. 29): significantly increased
mRNA expression levels of endoplasmic reticulum stress-related cytokines/chemokines, gefitinib treatment ([4]; E0771, gefitinib 20 μM, FIG. 34): significantly increased

colocalization of exogenous IL-26 with cell surface EphA3 (EphA3/IL-26 interaction; E0771, FIGS. 17 and 18): colocalized with the cell surface EphA3
B1: IL-26: recombinant human IL-26 dimers for cell stimulation, R&D Systems (protein)
chain: T1 sequence (Q9NPH9 22-171)
effect of exogenous IL-26 on inhibitory effect of erlotinib (E0771 cells; E0771, IL-26 30 ng/ml, erlotinib 30 μM or 50 μM, 48 hours, MTT): inhibited the inhibitory effect of erlotinib on cell proliferation
effect of exogenous IL-26 on gefitinib-induced suppression of cell proliferation (E0771 cells; E0771, IL-26 with gefitinib, 48 hours): significantly inhibited the cell proliferation suppression induced by gefitinib; also recorded: significantly suppressed in a dose-dependent manner
cell proliferation, IL-26 treatment alone (E0771 cells; E0771, no gefitinib): did not affect cell proliferation
effect of exogenous IL-26 on inhibitory effect of erlotinib (HCC70 cells; HCC70, IL-26 30 ng/ml, erlotinib 30 μM or 50 μM, 48 hours, MTT): inhibited the inhibitory effect of erlotinib on cell proliferation
effect of exogenous IL-26 on gefitinib-induced suppression of cell proliferation (HCC70 cells; HCC70, IL-26 with gefitinib, 48 hours): significantly inhibited the cell proliferation suppression induced by gefitinib
effect of exogenous IL-26 on suppression of cell proliferation by gefitinib (T47D cells): inhibited
colocalization of exogenous IL-26 with cell surface EphA3 ([5]; HCC70, FIG. 21): colocalized with the cell surface EphA3 of HCC70
phosphorylation of EphA3 ([1]; E0771, IL-26 30 ng/ml, 0 to 60 minutes, FIG. 24A): induced dephosphorylation of EphA3
AKT and JNK phosphorylation ([1]; E0771, IL-26 30 ng/ml, FIG. 5E): activated AKT and JNK phosphorylation
STAT3 activation ([1]; E0771, IL-26 30 ng/ml, FIG. 5E): did not activate STAT3
mRNA expression levels of IL-6, IL-8 and CXCL2, IL-26 with gefitinib ([2]; HCC70, IL-26 30 ng/ml, gefitinib 40 μM, 6 hours, FIG. 34): significantly reduced
expression of DDIT3 at the protein level, IL-26 with gefitinib ([2]; HCC70, IL-26 30 ng/ml, gefitinib 40 μM, 24 hours, FIG. 30): significant decrease
mRNA expression levels of DDIT3, ATF3 and ATF4, IL-26 with gefitinib ([2]; HCC70, IL-26 30 ng/ml, gefitinib 40 μM, FIG. 28): clearly reduced
mRNA expression levels of DDIT3, ATF3 and ATF4, IL-26 with gefitinib [3, 6]: significantly decreased
mRNA expression levels of IL-6, IL-8 and CXCL2, IL-26 with gefitinib [3, 6]: significantly reduced
mRNA expression levels of DDIT3, ATF3 and ATF4, IL-26 with gefitinib [4, 7]: significantly decreased
mRNA expression levels of endoplasmic reticulum stress-related cytokines/chemokines, IL-26 with gefitinib [4, 7]: significantly reduced

B2: 69-10: mouse anti-human IL-26 monoclonal antibody, clone 69-10, from deposited hybridoma (antibody, V domains shown)
VH: QVTLKESGPGILKPSQTLSLTCSFSGFSLSTSGMGVGWIRQPSGKGLEWLAHIWWDDDKYYNPSLKSQLTISKDTSRNQVFLKITSVDTADTATYYCVRGGITATHYYAMDYWGQGTSVTVSS
VL: DIQMTQSPASQSASLGESVTISCLASQTIGTWLSWYQQKPGKSPQLLIYAATSLADGVPSRFSGSGSGTKFSFKISSLQAEDFVSYYCQQLYSSPWTFGGGTKLEIK
reversal of inhibitory effect of IL-26 on gefitinib-induced suppression of cell proliferation (MTT) (E0771 cells; E0771, IL-26 30 ng/ml, gefitinib 20 μM, antibody 20 μg/ml, 48 hours, FIG. 5D): reversed the inhibitory effect of IL-26 on gefitinib-induced suppression of cell proliferation
reversal of effect of IL-26 on gefitinib-induced suppression of cell proliferation (percent confluence) (E0771 cells; E0771, gefitinib 15 μM and IL-26, antibody 10 μg/ml (mixture 2.5 μg/ml each), FIG. 11): reversed the effect of IL-26 on gefitinib-induced suppression of cell proliferation
reversal of inhibitory effect of IL-26 on gefitinib-induced suppression of cell proliferation (HCC70 cells; HCC70, IL-26 30 ng/ml, gefitinib 40 μM, 48 hours, MTT, FIG. 59): reversed the inhibitory effect of IL-26 on gefitinib-induced suppression of cell proliferation in an antibody dose-dependent manner
inhibition of colocalization of IL-26 with EphA3 (EphA3/IL-26 interaction) (EphA3/IL-26 interaction; E0771, antibodies 10 μg/ml, FIGS. 19 and 20): significantly inhibited
inhibition of interaction between IL-26 and EphA3 ([5]; HCC70, rhIL-26-Alexa488 30 ng/ml, 50 μg/ml each, 1 hour, FIG. 21): clearly inhibited the interaction between IL-26 and EphA3
inhibition of the decrease in expression of DDIT3 at the protein level by IL-26 together with gefitinib ([2]; HCC70, 24 hours, antibodies 50 μg/ml, FIG. 32 lower): significantly inhibited
inhibitory effect compared with anti-EphA3 pAb ([2]; HCC70 cells treated with gefitinib and IL-26): stronger than that of anti-EphA315 pAb
reversal of effect of IL-26 on gefitinib-induced DDIT3 expression and mitochondrial membrane depolarization ([2]; HCC70 cells treated with gefitinib and IL-26, FIGS. 32 and 33): reversed the effect of IL-26
